Test results from patent US20180085456A1 (AFFIMED, published 2018).

Biological target: T1, CD30 on CD30+ lymphoma cells (KARPAS-299) (UniProt P28908 19-595, limits assumed)
T1 sequence (looked up): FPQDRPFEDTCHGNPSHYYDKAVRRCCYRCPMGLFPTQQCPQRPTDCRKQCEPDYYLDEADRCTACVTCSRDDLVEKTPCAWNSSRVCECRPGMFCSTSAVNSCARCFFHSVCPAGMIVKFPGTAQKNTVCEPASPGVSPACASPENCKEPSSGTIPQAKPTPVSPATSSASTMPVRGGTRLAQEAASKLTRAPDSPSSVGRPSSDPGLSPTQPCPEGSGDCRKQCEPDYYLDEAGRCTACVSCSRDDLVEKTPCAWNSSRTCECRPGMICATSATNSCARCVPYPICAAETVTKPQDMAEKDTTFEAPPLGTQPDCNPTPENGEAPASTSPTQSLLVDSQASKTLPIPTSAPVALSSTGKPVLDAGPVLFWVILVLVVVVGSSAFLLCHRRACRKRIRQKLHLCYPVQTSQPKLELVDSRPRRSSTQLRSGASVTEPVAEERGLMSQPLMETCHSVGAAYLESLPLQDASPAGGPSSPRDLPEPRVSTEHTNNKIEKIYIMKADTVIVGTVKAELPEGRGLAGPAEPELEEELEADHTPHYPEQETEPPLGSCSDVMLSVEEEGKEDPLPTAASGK
Assay: cell-based or functional assay

B1: bispecific CD30/CD16A tandem diabody (AFM13) (bispecific antibody)
chain: QVQLVQSGAEVKKPGESLKVSCKASGYTFTSYYMHWVRQAPGQGLEWMGIINPSGGSTSYAQKFQGRVTMTRDTSTSTVYMELSSLRSEDTAVYYCARGSAYYYDFADYWGQGTLVTVSSGGSGGSGGSDIVMTQSPKFMSTSVGDRVTVTCKASQNVGTNVAWFQQKPGQSPKVLIYSASYRYSGVPDRFTGSGSGTDFTLTISNVQSEDLAEYFCQQYHTYPLTFGGGTKLEINGGSGGSGGSQVQLQQSGAELARPGASVKMSCKASGYTFTTYTIHWVRQRPGHDLEWIGYINPSSGYSDYNQNFKGKTTLTADKSSNTAYMQLNSLTSEDSAVYYCARRADYGNYEYTWFAYWGQGTTVTVSSGGSGGSGGSSYVLTQPSSVSVAPGQTATISCGGHNIGSKNVHWYQQRPGQSPVLVIYQDNKRPSGIPERFSGSNSGNTATLTISGTQAMDEADYYCQVWDNYSVLFGGGTKLTVL
potency and efficacy toward target and effector cells (EC50): 15 pM
